Reference: patent US20250170182A1

Tests used:
[1] = molecular target: human wild type CD123 (human) (UniProt P26951); assay: cell-based or functional assay
[2] = molecular target: human wild type FLT3 (human) (UniProt P36888); assay: cell-based or functional assay

UniProt P26951, sequence (P26951 19-378 limits assumed): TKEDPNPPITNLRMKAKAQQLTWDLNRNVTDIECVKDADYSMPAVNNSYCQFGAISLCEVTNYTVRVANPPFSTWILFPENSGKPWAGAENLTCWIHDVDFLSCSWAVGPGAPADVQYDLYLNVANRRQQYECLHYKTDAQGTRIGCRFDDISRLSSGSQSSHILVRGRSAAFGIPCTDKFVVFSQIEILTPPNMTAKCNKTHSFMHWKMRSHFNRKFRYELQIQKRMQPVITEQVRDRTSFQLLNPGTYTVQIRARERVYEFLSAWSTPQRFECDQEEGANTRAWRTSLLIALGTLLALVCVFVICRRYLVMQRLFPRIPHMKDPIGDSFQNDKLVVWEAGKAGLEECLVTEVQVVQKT

In the case of “CSL362-CAR (CD8a hinge, CD28 TM, CD28z, CD3z) targeting CD123 N-terminal domain”, the surviving K562 target cells at E:T=10 relative to E:T=0 [1] is reported as < 2%.
With “4G8-CAR (IgG4 hinge, CD28 TM, CD28z, CD3z) targeting FLT3 domain 4” the surviving K562 target cells at E:T=10 relative to E:T=0 [2] was < 2%.
